Test results: PMC5425604, “Fe65-PTB2 Dimerization Mimics Fe65-APP Interaction” (Frontiers in Molecular Neuroscience, 2017)
“And” between values parts separate entries of the source, which are not always exact repeats. Equal entries are not always repeated.

Assays:
[1] = biological target: the molecule itself; experiment: SEC-MALS; MALS in line with SEC, refractive index; SEC buffer with 5% (v/v) glycerol
[2] = biological target: the molecule itself; experiment: native gel or EMSA; Blue Native gel of cytosolic and membrane fractions of HEK293 cells expressing Fe65-HA, with or without APP-myc; blots for HA and myc
[3] = biological target: the molecule itself; experiment: SAXS; 0.25-6 mg/mL, 20 mM Na2HPO4 pH 6.5, 150 mM NaCl, 2 mM DTT (reducing), 300 K; monomer to dimer

B1: Human Fe65-PTB2 (residues 534-667), crystallization construct (domain or fragment, UniProt O00213 534-667, looked up)
chain: APKNELVQKFQVYYLGNVPVAKPVGVDVINGALESVLSSSSREQWTPSHVSVAPATLTILHQQTEAVLGECRVRFLSFLAVGRDVHTFAFIMAAGPASFCCHMFWCEPNAASLSEAVQAACMLRYQKCLDARSQ
notes: Fe65 (APBB1), human, PTB2 domain, residues 534-667 of UniProtKB APBB1_HUMAN O00213; source: recombinantly expressed and purified as described previously (Radzimanowski et al., 2008a); final SEC with 5% glycerol
stoichiometry N [1]: 2 and 4

B2: Fe65-HA (natural protein, human, UniProt O00213 1-710, looked up)
chain: MSVPSSLSQSAINANSHGGPALSLPLPLHAAHNQLLNAKLQATAVGPKDLRSAMGEGGGPEPGPANAKWLKEGQNQLRRAATAHRDQNRNVTLTLAEEASQEPEMAPLGPKGLIHLYSELELSAHNAANRGLRGPGLIISTQEQGPDEGEEKAAGEAEEEEEDDDDEEEEEDLSSPPGLPEPLESVEAPPRPQALTDGPREHSKSASLLFGMRNSAASDEDSSWATLSQGSPSYGSPEDTDSFWNPNAFETDSDLPAGWMRVQDTSGTYYWHIPTGTTQWEPPGRASPSQGSSPQEESQLTWTGFAHGEGFEDGEFWKDEPSDEAPMELGLKEPEEGTLTFPAQSLSPEPLPQEEEKLPPRNTNPGIKCFAVRSLGWVEMTEEELAPGRSSVAVNNCIRQLSYHKNNLHDPMSGGWGEGKDLLLQLEDETLKLVEPQSQALLHAQPIISIRVWGVGRDSGRERDFAYVARDKLTQMLKCHVFRCEAPAKNIATSLHEICSKIMAERRNARCLVNGLSLDHSKLVDVPFQVEFPAPKNELVQKFQVYYLGNVPVAKPVGVDVINGALESVLSSSSREQWTPSHVSVAPATLTILHQQTEAVLGECRVRFLSFLAVGRDVHTFAFIMAAGPASFCCHMFWCEPNAASLSEAVQAACMLRYQKCLDARSQASTSCLPAPPAESVARRVGWTVRRGVQSLWGSLKPKRLGAHTP
notes: Fe65 (APBB1); called full-length Fe65 in the native gel analysis; human stated for Fe65 in general; Printed both as FE65-HA and HA-Fe65; also called HA-Fe65; HA-tagged Fe65; source: HEK293, transfected (pcDNA3.1), in lysate or subcellular fraction
stoichiometry N [2]: 2

B3: Wildtype Fe65-PTB2 (pETHis construct for NMR and SAXS) (domain or fragment, human, UniProt O00213 534-667, looked up)
chain: APKNELVQKFQVYYLGNVPVAKPVGVDVINGALESVLSSSSREQWTPSHVSVAPATLTILHQQTEAVLGECRVRFLSFLAVGRDVHTFAFIMAAGPASFCCHMFWCEPNAASLSEAVQAACMLRYQKCLDARSQ
notes: Fe65 (APBB1), human, PTB2 domain; limits 534-667 are stated for recombinant Fe65-PTB2 in general, not separately for the pETHis construct; also called wt Fe65-PTB2
stoichiometry N [3]: 2
